Target: WDR5^22–334 (human, UniProt P61964 22-334)
Test: ITC

Row | Binder | Kd [nM]
1 | GSARAEVHLRK [MLL1 WIN motif MLL1^3762–3772] | 1800
2 | GSRRAEVHLRK [MLL1^3762–3772_A3764R] | 2000
